pKd: −log10 of the molar value.
Experiments:
[1] = target: swine fibronectin (swine); assay: SPR
[2] = target: swine plasminogen (swine); assay: SPR

Substance	pKd [1]	pKd [2]
Mycoplasma bovis enolase (from UniProt A0A454AQL1 1-454) (enzyme)	6.31	7.02
Mycoplasma hyopneumoniae enolase (enzyme)	7.13	7.20
Mycoplasma pneumoniae enolase (from UniProt P75189 1-456) (enzyme)	< 6.00	6.52
